Changes are numbered by the printed parent chain.

B1: Eterna 7697814 (Same State - Tryptophan B) (ssRNA)
RNA: AGUAGUUGGACGGCCGCCACUGGAACAGCUUUGCCAAAGGCAGAGCACUAGAGUGAUGUUCUAGCUAGGACCGGGUCCAACUACA
B2: Eterna 7710185 (Exclusion - Tryptophan A) (ssRNA)
RNA: AGCUCGCAUCCUCUAGCGUCAAAGACGCCUCGAGGACCGGUACGGCCGCCACUCGAGAUGAGGAUCACCCAUCUCAAAGCGAGCA
B3: Eterna 7684764 (Exclusion - Tryptophan B) (ssRNA)
RNA: AAUAAAAUCACGGCCGCCACUGAUGUUAAUAUUAGCAGUGAUGUUGCUAUGUCGUUUUUAUUUAACAGGACCGGGUGAAUAUUUA
B4: Eterna 6407693 (Inverted Exclusion NG 2) (ssRNA)
RNA: UCAGGCUUCGAGAAGGACAUGAAUCGUAGCAUUGCUACGAUGAAUUAUACAUGAGGAUCACCCAUGUAGGAUAUCGGAGUCUGC
B5: Eterna 6428636 (Exclusion NG 3) (ssRNA)
RNA: AGGUAUCCUGAGAAAUUUCUCCACAUGAGGAUCACCCAUGUAGAGGAUAUCGACGCUGUGCGGUUCGAGAAGGCUACACUAAAA
B6: Eterna 7770355 (Exclusion - Tryptophan A) (ssRNA)
RNA: GGUGUUGUUUGUGCUGUUUUCCUCGUUCCUCGAGGACCGGUACGGCCGCCACUCGAGUGAUGUUUGGGUAGCGAUCCUUGUUAGU
B7: Eterna 7687503 (Exclusion - Theophylline A) (ssRNA)
RNA: UGUAUGUGUCAGCGAGUGAUGUUCGACGAUACCAGACUCGAUAGAGUCCCUUGGCAGCGUAAUGCAUGCCAAACUGGCACAUACU
B8: Eterna 6117498 (Same State NG 2) (ssRNA)
RNA: AAAACAUACCGAGGAUAUUCAUAUAAUAAAUAAACAUGAGGAUCACCCAUUUGGCAAAAGCCUAGGGAGAAGGCGGAAUGCUAA
B9: Eterna 6150223 (Exclusion NG 3) (ssRNA)
RNA: AUUAUGACCGAGUUAUGCUUCAAAACAUGAGGAUCACCCAUGUAGGAUAUCAGCACGAUAAGUGCUGAGAAGGACAUCUCGGUC
B10: Eterna 15969 (Sensor v3, turn-off variant 2) (ssRNA)
RNA: AAGUACCGUCACGAUAGUGAUGGUACAACAAGCAAAUGUACAUGAGGAUCACCCAUGUCCUCUUUUGCUCGUCUUGU
B11: Eterna 7697025 (Exclusion - Arginine B) (ssRNA)
RNA: UGAUAGGACAGAAGGAGCGGAAGUGAUGUUUCCAAUGGAUAAAAGGUGUCAAAGACACCCUUCCAGGUAGGUCGCUGUCCUAUCU
B12: Eterna 7673438 (Same State - Arginine B) (ssRNA)
RNA: UGUAUGGACUGAAGGAGCGGGUUGAUAUCAUGAGGAUCACCCAUGGAAAAGGCGAAAGCCGCCCAGGUAGGUCGCAGUCCAUACU
B13: Eterna 7673392 (Same State - Arginine B) (ssRNA)
RNA: B12 RNA with U28A, A30C, C40U, U44G, G46U, G61A
B14: Eterna 1023 (Exclusion - FMN A) (ssRNA)
RNA: GUCCAUGUCCUCAUUCGUGCACUGGACACCAAGGAUAUGUUUAUGGACAGAAGGUGGUUGGGUCAGUGAUGUUGAUAUAAUUAGU
B15: Eterna 7710481 (Same State - Theophylline B) (ssRNA)
RNA: GGAGGUUGGUGCGAUACCAGACCAGCAGUGAUGUUGCGCCAAAGUGAGUGAUGUUCACCGGUCCCUUGGCAGCGCAUUCCUUUAG
B16: Eterna 7734801 (Same State - FMN B) (ssRNA)
RNA: UGUACCGAGUCAGGAUAUGUCGUCGAAAGACGAAUCCUAGUGAUGUUAGGGAUCUGCGAAAGCAGUGCAGAAGGGACUUGGUACU
B17: Eterna 6443507 (Inverted Exclusion NG 1) (ssRNA)
RNA: CGAACCAUGUAGAAGGCUGUCUUAAAAUAGGACAGAGGAUAUACAUGAGGAUCACCCAUGUACUCCUUUAAAAGGUUCGAAAUA
B18: Eterna 9265 (Exclusion 1) (ssRNA)
RNA: CCGUCACAUGAGGAUCACCCAUGUCAGGAUAUCUAUCAUAGCAUCGAAAGAUGCGGGUAGAGAAGGGACUAUCC
B19: Eterna 7696031 (Exclusion - Tryptophan B) (ssRNA)
RNA: UGAUACCAGACGGCCGCCACUACACCAGUCAAAGACUGGAUGUGAAAUUCGACCAGUGAUGUUGGUAGGACCGGGUCUGGUAUCU
B20: Eterna 7755228 (Same State - Theophylline A) (ssRNA)
RNA: AAAAUAAAUCAGUGAUGUUGGUAUCCGGAUACCAGCGAUAAUCAUCGCCCUUGGCAGCCGCGGACGUACAAAAUAAGUACGUCCU
B21: Eterna 7730540 (Same State - FMN A) (ssRNA)
RNA: AGCGAGUGAUGUUCGCUGAUCAUGUGAAGUUAGGAUAUAUACUUGCAUAGAAGGAACUAUUACAUGACAUUAGAGGCAGUAGUUC
B22: Eterna 7696419 (Exclusion - Arginine B) (ssRNA)
RNA: AAUGUACAGGGAAGGAGCGUAGUCCAGUGAUGUUGGAGUUAAAUACCAGUGAUGUUGGUUAUACAGGUAGGUCGCCCUAAAGUGC
B23: Eterna 6429242 (Inverted Exclusion NG 1) (ssRNA)
RNA: UCCGCAUCUGAGAAGGGAUCUCCGCGGAAGGGAUCAGGAUAUCGGACAUGAGGAUCACCCAUGUGCCGUUAAAGGACACCUGGU
B24: Eterna 6447203 (Exclusion NG 2) (ssRNA)
RNA: AUCAGCUCGUCAGGAUAUACGUAACUGCGUCAGCAGUGUGGUAAGAUCACAUGAGGAUCACCCAUGUAGAAGGGACGAGCUGAU
B25: Eterna 7692142 (Exclusion - FMN A) (ssRNA)
RNA: UUAUAUACGAGUGAUGUUCGUUAUUUAUCAGAGGAUAUGCUUAAAUGCAGAAGGCUGUUUUUCUAUUUGAUAUUAAAUUUUAUAA
B26: Eterna 6121278 (Same State NG 1) (ssRNA)
RNA: UCACUCAAGUUAGGAUAUGGAUCGGAAAACGAUCCAGAAGGAACAUGAAAACAUGAGCAUCAGCCAUGUUCCAGAAACGAGUGA
B27: Eterna 6121478 (Same State NG 1) (ssRNA)
RNA: B26 RNA with U1G, A29C, U46C, G47A, A49U, A66G, A84C
B28: Eterna 5503477 (Same State 1) (ssRNA)
RNA: AAGAAACAUGAGGAUCACCCAUGUAAGAUAAACACAGGAUAUGCGAAUAAAAUAAAUAAAGCAGAAGGGUGAAGAA
B29: Eterna 5973727 (Sensor, turn-off variant 1) (ssRNA)
RNA: CCGUGCACGCUGCGCUCCUACAUGAGGAUCACCCAUGUGGUCCGGUGGCGUGGGUCGCCGGACUUGGCUCGUCUUGU
B30: Eterna 6421601 (Exclusion NG 3) (ssRNA)
RNA: GGUACUCAAAGAGUACCAAAACGAACAUGAGGAUCACCCAUGUAGGAUAUGCUACUCAAAGAGUAGCAGAAGGACAUGUGCCUA
B31: Eterna 7632613 (Same State - Theophylline B) (ssRNA)
RNA: GGGUGUGAUCCGGAUACCAGCGAACAUGAGGAUCACCCAUGUGACCUGAGAUCGGCUCUACGCCCUUGGCAGCCGCGGUCGCAGG
B32: Eterna 6063240 (Exclusion 4) (ssRNA)
RNA: GUUUCGUCAGGAUAUGUGGCUUCGAUCGUGCGAAGAAGGCUACAGAAGGCACAUGAGGAUCACCCAUGUUCGUC
B33: Eterna 6398795 (Exclusion NG 1) (ssRNA)
RNA: CCUGCACCUCAAGGAUAUCCAGUCGAAACGACUGGAGAAGGUGAGGAUCACCCAUCUAGCCUGACGAAAGUCAGGCAUGCAGGA
B34: Eterna 6454516 (Inverted Same State NG 3) (ssRNA)
RNA: AAACACGGACAUGAGGAUCACCCAUGUGGCGAAAGCCUUGGAAGAAGGCCGAUUGCAAAGCAAUCGGAGGAUAUUCAUACCGUG
B35: Eterna 11606 (Exclusion 1) (ssRNA)
RNA: UUUUAACAUGAGGAUCACCCAUGUGAGGAUAUCGAUAUUUUUAUUAAUAUUAAUAAAACGAGAAGGCACAUUUU
B36: Eterna 6374082 (Exclusion NG 1) (ssRNA)
RNA: CGGUGACGUGUAGGAUAUGGCGCUGGGUUUUGGCCAGAAGGACAUGAGGAUCACCCAUGUGGUAGAGGGCUGGCGGCCGCCCGU
B37: Eterna 12594 (Exclusion 3) (ssRNA)
RNA: AACGAUCUAGGAUAUACAUGAGGAUCACCCAUGUAAGAGCCCAAACCAGGCUCCCUCUGUAGAAGGAGGUCAAA
B38: Eterna 7710586 (Same State - Theophylline B) (ssRNA)
RNA: UCUGGUAUAUCUGAUACCAGAGUAUAGUAUCAAUUGCAUAUCCGCAGUGAUGUUGCGGAACUCCCUUGGCAGCAGAUCUAUCUCU
B39: Eterna 7692481 (Exclusion - Theophylline B) (ssRNA)
RNA: UUAGUUGAAAGUGAUACCAGACGAGUGAAGGGAAGAAAUUAAGUUGGAGUGAUGUUCCGCGUCCCUUGGCAGCACUUUGUAAUUU

The target of this data set is MS2 coat protein, dlFG mutant (Escherichia phage MS2, UniProt P03612, del68-81insG). The data set is described as follows: 4 mM Mg2+; no ligand; RNA-MaP array; 100 mM Tris-HCl pH 7.5, 80 mM KCl, 4 mM MgCl2, 0.1 mg/mL BSA, 1 mM DTT, 0.01 mg/mL yeast tRNA, 0.01% Tween-20; protein 1.5 nM to 3 uM; 37 C (Table S3). The settings on record: chain copies: 2; label: tethered by stalled RNA polymerase.
The term Kd denotes the equilibrium constant for the complex coming apart. Read a high Kd as a looser complex. In the case of B1, the dissociation constant Kd is > 3000 nM.
The molecule B2 had a dissociation constant (Kd) of 190 nM.
With B3, the Kd is > 3000 nM.
The figure for B4 is 5.71 nM; for B5 it is 5.95 nM.
Turning to B6, the equilibrium dissociation constant (Kd) was > 3000 nM.
The figure for B7 is > 3000 nM; for B8 it is 974 nM.
The figure for B9 is 14.7 nM; for B10 it is 166 nM; for B11 it is > 3000 nM.
The figure for B12 is 20 nM; for B13 it is 279 nM.
As for B14, the equilibrium dissociation constant (Kd) is > 3000 nM.
The figure for B15 is > 3000 nM; for B16 it is > 3000 nM.
The figure for B17 is 5.01 nM; for B18 it is 19.2 nM; for B19 it is > 3000 nM.
The figure for B20 is > 3000 nM; for B21 it is > 3000 nM; for B22 it is > 3000 nM.
For AAAACAUGAGGAUCACCCAUGUAAA (ssRNA) [Eterna 1 (MS2 control)], the affinity, expressed as Kd, was 12.8 nM.
The figure for B23 is 6.05 nM.
The figure for B24 is 51.7 nM; for B25 it is > 3000 nM; for B26 it is 77.6 nM.
The figure for B27 is 463 nM.
B28 registered a Kd of 51.2 nM.
The figure for B29 is 92.3 nM.
The figure for B30 is 18.5 nM.
The figure for B31 is 12.2 nM; for B32 it is 34.2 nM.
For the molecule B33, binding was characterised by a dissociation constant (Kd) of 368 nM.
The figure for B34 is 13.8 nM; for B35 it is 68 nM; for B36 it is 15.7 nM.
The figure for B37 is 44.9 nM; for B38 it is > 3000 nM; for B39 it is > 3000 nM.

Source of the values: article PMC9170038, “Crowdsourced RNA design discovers diverse, reversible, efficient, self-contained molecular switches”.
